For test [1], the target named is T1, human vascular endothelial growth factor receptor-2 Fc chimera (KDR-Fc) (human, UniProt P35968 20-764).
T1 construct: range 1-764; also called human VEGFR-2; hKDR; not shown: human IgG1 Fc
Kind of test: binding to 1 nM KDR-Fc, % of input; radioactive equilibrium binding (assay not given). The method, then: (§1) To prepare ³⁵S-labeled binding proteins for analysis, mRNA was prepared as described above for RNA-protein fusion production but the linker ligation step was omitted. The mRNA was expressed using rabbit reticulocyte lysate translation kit (Ambion) in the presence of ³⁵S-labeled Met at 30° C. for 1 hour. Expressed protein was purified on M2-agarose Flag beads (Sigma) as described above. This procedure produced the encoded protein without the nucleic acid tail. In a direct binding assay, VEGF-R2-Fc fusions in concentrations ranging from 0 to 200 nM were added to a constant concentration of the purified protein (0.2 or 0.5 nM) and incubated at 30° C. for 1 hour in buffer B. The receptor-binder complexes were captured using Protein A magnetic beads for another 10 minutes at room temperature using a Kingfisher™ The beads were washed with six reaction volumes of buffer B. The protein was eluted from the beads with 100 μL of 0.1 M KOH. […] of the reaction mixture and elution were dried onto a LumaPlate-96 (Packard) and the amount of ³⁵S on the plate was measured using a TopCount NXT instrument (Packard). The amount of fibronectin-based scaffold protein bound to the target was estimated as a percent of radioactivity eluted from Protein A magnetic beads compare to radioactivity in the reaction mixture. Nonspecific binding of fibronectin-based scaffold proteins to the beads was determined by measuring binding in the absence of KDR-Fc and represented less than 1-2% of the input. Specific binding was obtained through subtraction of nonspecific binding from total binding. Data was analyzed using the GraphPad Prizm software (GraphPad Software, Inc, San Diego, Calif.), fitted using a one site, non-linear binding equation.

The target in test [2] is T2, mouse vascular endothelial growth factor receptor-2 Fc chimera (Flk-1-Fc) (mouse, UniProt P35918 20-762).
T2 construct: Purchased from R&D Systems; also called mouse VEGF-R2; not shown: Fc part of the purchased chimera
T2 sequence (P35918 20-762, change not shown): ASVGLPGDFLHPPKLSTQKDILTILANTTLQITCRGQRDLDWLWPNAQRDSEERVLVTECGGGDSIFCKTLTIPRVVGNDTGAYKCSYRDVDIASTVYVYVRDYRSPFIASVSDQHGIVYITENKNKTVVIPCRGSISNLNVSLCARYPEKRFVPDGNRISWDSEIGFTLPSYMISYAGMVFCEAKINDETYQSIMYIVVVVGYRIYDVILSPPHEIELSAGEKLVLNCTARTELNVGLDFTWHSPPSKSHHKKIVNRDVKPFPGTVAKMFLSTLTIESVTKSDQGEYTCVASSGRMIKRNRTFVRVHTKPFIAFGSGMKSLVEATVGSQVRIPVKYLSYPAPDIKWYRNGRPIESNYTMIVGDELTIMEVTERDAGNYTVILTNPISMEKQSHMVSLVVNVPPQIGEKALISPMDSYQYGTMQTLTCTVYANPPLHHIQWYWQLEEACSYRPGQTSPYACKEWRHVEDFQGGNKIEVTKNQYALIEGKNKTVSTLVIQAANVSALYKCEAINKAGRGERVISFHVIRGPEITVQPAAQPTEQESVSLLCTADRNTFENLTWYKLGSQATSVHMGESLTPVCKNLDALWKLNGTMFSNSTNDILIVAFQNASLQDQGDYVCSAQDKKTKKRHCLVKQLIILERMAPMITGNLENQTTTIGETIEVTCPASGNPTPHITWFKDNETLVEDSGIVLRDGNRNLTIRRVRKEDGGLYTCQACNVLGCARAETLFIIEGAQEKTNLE
The test is described as follows: binding to 1 nM Flk-1-Fc, % of input; radioactive equilibrium binding (assay not given). The method, then:
as §1

The target in test [3] is T1, human vascular endothelial growth …. The test is described as follows: radioactive equilibrium binding (assay not given). How it is done: as §1
The target in test [4] is T2, mouse vascular endothelial growth …. Kind of test: radioactive equilibrium binding (assay not given). How it is done:
as §1

The target is the same in test [5]. The test is described as follows: clones from the 159Q(8)L library; binding per FIG. 4. How it is done:
as §1

One may read the Kd as the constant that tells how readily two partners part at equilibrium.

Numbering of substitutions follows the chain as printed.

T1 sequence (P35968 20-764 limits assumed, change not shown, form in doubt): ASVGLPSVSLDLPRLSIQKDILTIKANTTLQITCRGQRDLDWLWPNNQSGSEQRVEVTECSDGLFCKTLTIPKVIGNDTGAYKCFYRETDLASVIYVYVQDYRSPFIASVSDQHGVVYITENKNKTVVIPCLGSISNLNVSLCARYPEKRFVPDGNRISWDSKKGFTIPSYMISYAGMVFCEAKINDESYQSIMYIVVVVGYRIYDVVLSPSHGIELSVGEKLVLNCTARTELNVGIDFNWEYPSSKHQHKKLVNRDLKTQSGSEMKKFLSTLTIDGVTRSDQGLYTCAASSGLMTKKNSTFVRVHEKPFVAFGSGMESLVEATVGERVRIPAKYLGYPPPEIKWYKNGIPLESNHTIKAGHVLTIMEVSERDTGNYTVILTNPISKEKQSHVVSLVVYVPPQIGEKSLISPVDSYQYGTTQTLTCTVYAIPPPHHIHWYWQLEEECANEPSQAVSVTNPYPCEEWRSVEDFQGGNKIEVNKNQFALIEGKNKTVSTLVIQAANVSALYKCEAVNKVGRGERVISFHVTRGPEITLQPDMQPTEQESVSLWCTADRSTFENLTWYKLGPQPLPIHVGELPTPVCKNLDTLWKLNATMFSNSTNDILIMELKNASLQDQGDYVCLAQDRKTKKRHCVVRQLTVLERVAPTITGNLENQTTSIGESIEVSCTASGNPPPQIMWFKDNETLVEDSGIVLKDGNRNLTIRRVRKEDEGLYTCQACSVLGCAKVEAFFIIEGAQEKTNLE

B1: E5 (designed binder)
chain: EVVAATPTSLLISWRHPHFPTRYYRITYGETGGNSPVQEFTVPLQPPTATISGLKPGVDYTITGYAVTDGQNGRLLNVPISINYRT
notes: Del 1-8 10Fn3 clone; Flag tag of the radioactive-assay form not included
As to B1, in test [1], the “Binding to 1 nM KDR, %” value was determined as 26%. Besides, in test [2], the “Binding to 1 nM FLK, %” value was found to be 10%. The Kd came out at 0.4 nM in test [3] and 3.2 nM in test [4].

B2: E3 (designed binder)
chain: B1 chain with Q71R, G73D, L75K, N77M
notes: as for B1
For the molecule B2, the “Binding to 1 nM KDR, %” value in test [1] turned out to be 37%. For the same molecule, the “Binding to 1 nM FLK, %” value in test [2] was found to be 14%. For the same molecule, the Kd in test [3] amounted to 0.96 nM; in test [4] it was 5.4 nM.

B3: E9 (designed binder)
chain: B1 chain with D69E, G70E, Q71R, L75T, N77R, V78T
notes: as for B1
As for B3, in test [1], the “Binding to 1 nM KDR, %” value was determined as 24%. Also, the “Binding to 1 nM FLK, %” value in test [2] stood at 34%. In addition, the results for the Kd in test [3] and in test [4] were 2.37 nM and 1.4 nM, respectively.

B4: E25 (designed binder)
chain: B1 chain with D69L, G70E, Q71R, L75E, N77M, V78T
notes: as for B1
In the case of B4, the “Binding to 1 nM KDR, %” value in test [1] came to 41%. In test [2], the “Binding to 1 nM FLK, %” value stood at 28%. Besides, the results for the Kd in test [3] and in test [4] were 1.58 nM and 1.3 nM, respectively.

B5: E28 (designed binder)
chain: B1 chain with D69L, G70E, Q71R, L75E, N77M
notes: as for B1
For B5, in test [1], the “Binding to 1 nM KDR, %” value worked out at 19%. For the same molecule, the “Binding to 1 nM FLK, %” value in test [2] amounted to 21%. The Kd in test [3] was 1.63 nM; in test [4], 2.1 nM.

B6: M3 (designed binder)
chain: VSDVPRDLEVVAATPTSLLISWRHPHFPTRYYRITYGETGGNSPVQEFTVPLQPPAATISGLKPGVDYTITGYAVTKERNGRELFTPISINYRT
notes: 10Fn3 clone with WT N-terminus; Tags not included
In the case of B6, the binding result in test [5] is given as “binds”.

B7: M1 (designed binder)
chain: B6 chain with P55T, A56V, K77L, G81D
notes: as for B6
Regarding B7, the binding result in test [5] is recorded as “binds”.

B8: M6 (designed binder)
chain: B6 chain with R30H, K77L, N80D
notes: as for B6
With B8, the binding result in test [5] was “binds”.

B9: M2 (designed binder)
chain: B6 chain with K77W
notes: as for B6
B9: the binding result in test [5] was “binds”.

B10: M8 (designed binder)
chain: B6 chain with R30H, N80S
notes: as for B6
Turning to B10, the binding result in test [5] was “binds”.

B11: M7 (designed binder)
chain: B6 chain with P55T, A56T, K77W
notes: as for B6
With B11, in test [5], the binding result is reported as “binds”.

B12: M4 (designed binder)
chain: B6 chain with R30H, K77T, N80T
notes: as for B6
With B12, the binding result in test [5] is given as “binds”.

The values are drawn from patent publication US20140179896A1 (published 2014).
